Here are results for 3 substances from patent US20170119861.

Targets include Aβ42 oligomers (UniProt P05067); Aβ42 fibrils (UniProt P05067); synthetic Aβ42 peptide (UniProt P05067).
Data set [1] addresses protective protein/cathepsin A (PPCA) (UniProt P10619).

Chain of cathepsin D (chain, as listed by the source): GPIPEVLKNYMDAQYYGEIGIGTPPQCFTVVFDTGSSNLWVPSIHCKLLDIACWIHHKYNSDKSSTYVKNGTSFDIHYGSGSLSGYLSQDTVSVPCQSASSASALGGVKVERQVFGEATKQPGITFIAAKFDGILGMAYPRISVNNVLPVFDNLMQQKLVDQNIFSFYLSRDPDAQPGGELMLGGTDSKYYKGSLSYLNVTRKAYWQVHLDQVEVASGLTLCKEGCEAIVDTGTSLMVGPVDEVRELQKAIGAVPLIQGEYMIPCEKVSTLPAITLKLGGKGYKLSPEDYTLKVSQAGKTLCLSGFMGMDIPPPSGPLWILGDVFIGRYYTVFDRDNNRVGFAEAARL
Chain of Aβ42 fibrils (P05067 whole entry, looked up): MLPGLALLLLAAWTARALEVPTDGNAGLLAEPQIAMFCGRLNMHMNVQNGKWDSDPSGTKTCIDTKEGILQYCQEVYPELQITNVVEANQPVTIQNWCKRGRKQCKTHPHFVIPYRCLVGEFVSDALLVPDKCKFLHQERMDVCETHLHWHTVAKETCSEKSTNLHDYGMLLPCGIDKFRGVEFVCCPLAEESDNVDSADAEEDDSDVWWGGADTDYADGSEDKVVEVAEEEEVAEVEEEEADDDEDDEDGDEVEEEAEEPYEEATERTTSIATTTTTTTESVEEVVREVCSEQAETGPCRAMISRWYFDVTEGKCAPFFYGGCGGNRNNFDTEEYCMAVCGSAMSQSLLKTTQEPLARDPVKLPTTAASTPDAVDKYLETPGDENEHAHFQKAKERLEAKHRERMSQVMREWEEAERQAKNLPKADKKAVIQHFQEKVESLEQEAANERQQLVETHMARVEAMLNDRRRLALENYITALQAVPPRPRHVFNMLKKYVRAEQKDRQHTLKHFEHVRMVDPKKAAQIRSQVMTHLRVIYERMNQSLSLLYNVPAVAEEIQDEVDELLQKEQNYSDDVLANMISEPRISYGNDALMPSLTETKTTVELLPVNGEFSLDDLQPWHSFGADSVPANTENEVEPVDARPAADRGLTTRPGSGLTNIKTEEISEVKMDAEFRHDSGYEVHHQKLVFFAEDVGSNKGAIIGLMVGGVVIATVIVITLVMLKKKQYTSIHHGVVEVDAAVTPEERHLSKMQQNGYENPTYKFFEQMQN
Chain of Aβ42 oligomers (P05067 whole entry, looked up): as above
Chain of synthetic Aβ42 peptide (P05067 whole entry, looked up, tested part not stated): as the sequence (P05067 whole entry, looked up) above
Chain of cathepsin L (chain, as listed by the source): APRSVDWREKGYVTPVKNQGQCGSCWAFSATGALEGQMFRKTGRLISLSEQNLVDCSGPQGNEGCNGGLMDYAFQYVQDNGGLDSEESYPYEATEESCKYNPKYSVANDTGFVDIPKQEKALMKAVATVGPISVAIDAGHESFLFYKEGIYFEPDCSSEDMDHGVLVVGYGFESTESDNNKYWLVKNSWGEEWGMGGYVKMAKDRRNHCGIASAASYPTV
Chain of protective protein/cathepsin A (PPCA) (P10619 29-480): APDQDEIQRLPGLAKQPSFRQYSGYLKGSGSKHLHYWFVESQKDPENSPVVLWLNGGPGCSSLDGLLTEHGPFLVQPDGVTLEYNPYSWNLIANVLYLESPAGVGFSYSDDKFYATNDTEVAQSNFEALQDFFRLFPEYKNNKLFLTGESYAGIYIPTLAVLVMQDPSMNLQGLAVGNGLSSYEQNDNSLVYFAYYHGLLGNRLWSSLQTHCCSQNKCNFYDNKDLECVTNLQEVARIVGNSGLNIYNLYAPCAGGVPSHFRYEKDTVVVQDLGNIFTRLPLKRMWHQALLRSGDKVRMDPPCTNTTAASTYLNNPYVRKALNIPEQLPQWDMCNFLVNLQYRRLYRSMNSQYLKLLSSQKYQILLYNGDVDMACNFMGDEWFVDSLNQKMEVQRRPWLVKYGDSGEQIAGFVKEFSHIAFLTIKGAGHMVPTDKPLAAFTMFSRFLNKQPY

Regarding cathepsin L, the “activation of cathepsin A (enzyme activity)” value in data set [1] was “Activation of 90 ng cathepsin A by cathepsin L”.

cathepsin B: in the data set with Aβ42 oligomers, the “western blot (A11) of day 9 Aβ42 oligomers after overnight treatment with 90 ng enzyme” value is reported as “did not reveal changes in intensity or size of oligomer band (lines 5, 6)”. For the same substance, the “western blot (E610) of day 9 Aβ42 fibrils after overnight treatment with 90 ng enzyme” value with Aβ42 fibrils is listed as “resulted in weak reduction/degradation of the fibril smear (line 5 compared to line 2)”. The “western blot of Aβ42 treated with cathepsin B” value in the data set with synthetic Aβ42 peptide was “cathepsin B prevents aggregation of low molecular weight Aβ42 species and degrades Aβ42 monomers in a time dependent manner”.

cathepsin D: the “western blot (A11) of day 9 Aβ42 oligomers after overnight treatment with 90 ng enzyme” value in the data set with Aβ42 oligomers is listed as “did not reveal changes in intensity or size of oligomer band (lines 5, 6)”. Besides, the “western blot (E610) of day 9 Aβ42 fibrils after overnight treatment with 90 ng enzyme” value in the data set with Aβ42 fibrils is recorded as “did not result in visible reduction/degradation of fibril smear or oligomer bands”. The “THT assay and western blot of Aβ42 treated with cathepsin D” value with synthetic Aβ42 peptide is on record as “strong prevention of aggregation of Aβ42 species, measured by THT; complete elimination Aβ42 monomers”.
